Consider 1 substance from PMC8715002, “Biochemical and Structural Characterization of a Novel Bacterial Tannase From Lachnospiraceae bacterium in Ruminant Gastrointestinal Tract” (Frontiers in Bioengineering and Biotechnology, 2021).

Common to all, as to assay: purified protein
Common to all, as to format: biochemical, Lachnospiraceae bacterium
What all share (settings): pH 7.0, 50 °C, 0.2–5 mM substrate

Data set [1] concerns T1, CCCOC(=O)c1cc(O)c(O)c(O)c1.
T1 construct: about 68 kDa, monomer; catalytic Ser205/Asp582/His614; forward primer reads MSQSTATR; signal peptide not discussed

In another data set the test system is T2, COC(=O)c1cc(O)c(O)c(O)c1.
T2 construct: about 68 kDa, monomer; catalytic Ser205/Asp582/His614; forward primer reads MSQSTATR; signal peptide not discussed

For data set [2], the system named is T3, CCCCCCCCCCCCOC(=O)c1cc(O)c(O)c(O)c1.
T3 construct: about 68 kDa, monomer; catalytic Ser205/Asp582/His614; forward primer reads MSQSTATR; signal peptide not discussed

Data set [3] has as its system T4, CCOC(=O)c1cc(O)c(O)c(O)c1.
T4 construct: about 68 kDa, monomer; catalytic Ser205/Asp582/His614; forward primer reads MSQSTATR; signal peptide not discussed

Turning to “TanALb (tannase from Lachnospiraceae bacterium) (Lachnospiraceae bacterium)”, the Km was 2000 ± 220 µM in data set [1], 2800 ± 350 µM with COC(=O)c1cc(O)c(O)c(O)c1, 1800 ± 260 µM in data set [2] and 2600 ± 190 µM in data set [3]. In addition, the kcat was 44.2 ± 3.6 s⁻¹ in data set [1], 82.5 ± 6.3 s⁻¹ with COC(=O)c1cc(O)c(O)c(O)c1, 24.6 ± 5.2 s⁻¹ in data set [2] and 78.8 ± 10.4 s⁻¹ in data set [3]. Moreover, the kcat/Km is 24500 ± 4000 M⁻¹ s⁻¹ in data set [1], 36400 ± 4400 M⁻¹ s⁻¹ in the data set on COC(=O)c1cc(O)c(O)c(O)c1, 15300 ± 2100 M⁻¹ s⁻¹ in data set [2] and 33300 ± 7300 M⁻¹ s⁻¹ in data set [3].
